Measurements as given in the supplement of paper PMC10126150.
± gives the standard deviation of the averaged measurements.

System: ATP
Test: switch fluorescence ratio, 500 uM ATP over buffer (Cy3 cluster intensity, sum of 5 cycles each) (fold (ratio)); higher = stronger signal-on switching upon ATP binding; sequences stand for … in TCGTCGGCAGCGTCAGATGTGTATAAGAGACAGTTTTTTTTTTTTTTTTTTTTTTTTT…TC
Conditions: aptamer strand: ATP DNA aptamer (quencher-CACCTGGGGGAGTATTGCGGAGGAAGG + anchor), 100 nM annealed; ATP concentration: 500 uM
Method in brief: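 The quencher-labelled ATP aptamer, at 100 nM, was annealed to Cy3-labelled switching-strand clusters on a modified Illumina MiSeq flow-cell. The clusters were imaged in selection buffer, then after 15 min with 500 uM ATP at 22 °C, and this buffer/ATP cycle ran five times with NaOH stripping and re-annealing between runs. Per-cluster fluorescence ratios, summed target-cycle over summed buffer-cycle Cy3 intensity, were averaged per switch-domain sequence. Clusters outside 100-1000 RFU were excluded.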
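Further: ATP exposure 15 min at 22 °C before imaging.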

With GCATGGGGGG the switch fluorescence ratio was 1.02 ± 0.042.
In the case of GCATGTAGAT, the switch fluorescence ratio is reported as 0.998 ± 0.047.
In the case of GCATGTGTTC, the switch fluorescence ratio is reported as 0.995 ± 0.038.
Sequence GCATTAGTAT has a switch fluorescence ratio of 0.935 ± 0.044.
GCATTCCGTT showed a switch fluorescence ratio of 1.02 ± 0.011.
Work on GCATTGGGGC yielded a switch fluorescence ratio of 0.9893 ± 0.0098.
For GCATTGGGTG, the switch fluorescence ratio was 1.11 ± 0.054.
GCATTGGTAC showed a switch fluorescence ratio of 1.17 ± 0.071.
GCATTGGTGG was tested, and the switch fluorescence ratio was 1.03 ± 0.019.
In the case of GCATTGTGTG, the switch fluorescence ratio is reported as 0.991 ± 0.037.
GCATTGTTTG was tested, and the switch fluorescence ratio was 0.995 ± 0.034.
GCATTTATGG was tested, and the switch fluorescence ratio was 0.949 ± 0.022.
GCATTTCATG showed a switch fluorescence ratio of 0.987 ± 0.021.
Work on GCATTTGCTT yielded a switch fluorescence ratio of 1.01 ± 0.019.
With GCATTTTTCT the switch fluorescence ratio was 0.982 ± 0.031.
Sequence GCATTTTTTC has a switch fluorescence ratio of 1.03 ± 0.019.
For GCCAATTACG, the switch fluorescence ratio was 1.11 ± 0.03.
In the case of GCCAATTATT, the switch fluorescence ratio is reported as 0.991 ± 0.031.
In the case of GCCACACTAG, the switch fluorescence ratio is reported as 1.06 ± 0.032.
In the case of GCCACGGGGA, the switch fluorescence ratio is reported as 1.0073 ± 0.00078.
Work on GCCAGAGGGG yielded a switch fluorescence ratio of 1.19 ± 0.34.
With GCCAGCAAGC the switch fluorescence ratio was 2.25 ± 0.34.
Work on GCCAGCATGG yielded a switch fluorescence ratio of 1.003 ± 0.0046.
GCCAGCGATC showed a switch fluorescence ratio of 2.23 ± 0.81.
In the case of GCCAGGGATT, the switch fluorescence ratio is reported as 1.01 ± 0.029.
Work on GCCAGGGGGT yielded a switch fluorescence ratio of 1.08 ± 0.12.
Work on GCCAGGGTCA yielded a switch fluorescence ratio of 1.025 ± 0.0066.
Work on GCCATACGCG yielded a switch fluorescence ratio of 1.03 ± 0.016.
GCCATGACGG was tested, and the switch fluorescence ratio was 0.988 ± 0.027.
For GCCCAAGGGG, the switch fluorescence ratio was 1.05 ± 0.091.
For GCCCATAGAC, the switch fluorescence ratio was 1.12 ± 0.041.
Work on GCCCATAGGA yielded a switch fluorescence ratio of 0.978 ± 0.094.
GCCCCGGCTG showed a switch fluorescence ratio of 1.03 ± 0.045.
With GCCCCGGGTT the switch fluorescence ratio was 1.36 ± 0.37.
Work on GCCCGGCCAG yielded a switch fluorescence ratio of 0.9693 ± 0.0062.
GCCCGGGCAT gave a switch fluorescence ratio of 0.986 ± 0.013.
GCCCGGGGGA showed a switch fluorescence ratio of 1.94 ± 1.3.
For GCCCGTATGG, the switch fluorescence ratio was 1 ± 0.019.
Work on GCCCGTTCGG yielded a switch fluorescence ratio of 1.01 ± 0.028.
For GCCCTAGTGT, the switch fluorescence ratio was 1.13 ± 0.024.
GCCCTGAGCG was tested, and the switch fluorescence ratio was 1.011 ± 0.0066.
Sequence GCCCTTAGCA has a switch fluorescence ratio of 1.018 ± 0.0013.
Sequence GCCGAAGGGG has a switch fluorescence ratio of 1.004 ± 0.0035.
GCCGAATATG showed a switch fluorescence ratio of 1.01 ± 0.015.
GCCGACAAGC was tested, and the switch fluorescence ratio was 1.05 ± 0.083.
Work on GCCGCCAGGG yielded a switch fluorescence ratio of 1.26 ± 0.068.
For GCCGCGGGGA, the switch fluorescence ratio was 1.04 ± 0.024.
With GCCGGATTGG the switch fluorescence ratio was 0.956 ± 0.021.
GCCGGCTGTG showed a switch fluorescence ratio of 0.9902 ± 0.0018.
GCCGGCTTTC showed a switch fluorescence ratio of 1.01 ± 0.048.
Sequence GCCGGGACGC has a switch fluorescence ratio of 1.05 ± 0.049.
For GCCGGGGCGC, the switch fluorescence ratio was 1 ± 0.012.
GCCGGTAGGG showed a switch fluorescence ratio of 0.98 ± 0.031.
In the case of GCCGGTTCTG, the switch fluorescence ratio is reported as 1.06 ± 0.022.
Work on GCCGTCAGTT yielded a switch fluorescence ratio of 0.9899 ± 0.0048.
GCCGTGCGGG gave a switch fluorescence ratio of 0.978 ± 0.03.
For GCCGTTTTGG, the switch fluorescence ratio was 1 ± 0.034.
Work on GCCTAAGTTT yielded a switch fluorescence ratio of 0.986 ± 0.024.
GCCTATGCAA gave a switch fluorescence ratio of 1.48 ± 0.021.
GCCTATTTGG was tested, and the switch fluorescence ratio was 0.998 ± 0.023.
Sequence GCCTCAGACA has a switch fluorescence ratio of 1.047 ± 0.0092.
GCCTCAGGAT showed a switch fluorescence ratio of 0.996 ± 0.068.
In the case of GCCTGAAAGC, the switch fluorescence ratio is reported as 0.9912 ± 0.0054.
Work on GCCTGAGATG yielded a switch fluorescence ratio of 1.03 ± 0.017.
GCCTGCTAGC gave a switch fluorescence ratio of 1.008 ± 0.007.
GCCTGCTTGC was tested, and the switch fluorescence ratio was 1.03 ± 0.053.
GCCTGGTTTT gave a switch fluorescence ratio of 0.979 ± 0.024.
Work on GCCTTAAAGG yielded a switch fluorescence ratio of 1.005 ± 0.0029.
GCCTTAACGG showed a switch fluorescence ratio of 1.01 ± 0.021.
Work on GCCTTACGGT yielded a switch fluorescence ratio of 1.04 ± 0.038.
For GCCTTATATA, the switch fluorescence ratio was 0.9952 ± 0.0063.
Work on GCCTTCAAGC yielded a switch fluorescence ratio of 1.04 ± 0.054.
With GCCTTGATGG the switch fluorescence ratio was 1.01 ± 0.021.
GCCTTGTTCA gave a switch fluorescence ratio of 0.993 ± 0.022.
Sequence GCCTTTGGCA has a switch fluorescence ratio of 0.962 ± 0.013.
Sequence GCGAAAAAGG has a switch fluorescence ratio of 0.997 ± 0.035.
Work on GCGAAAAGAA yielded a switch fluorescence ratio of 1.05 ± 0.054.
Work on GCGAAAGGT yielded a switch fluorescence ratio of 0.9846 ± 0.0017.
GCGAAGGTCT gave a switch fluorescence ratio of 1 ± 0.014.
Sequence GCGAATCGTA has a switch fluorescence ratio of 0.999 ± 0.049.
For GCGACGTGAC, the switch fluorescence ratio was 3.17 ± 0.24.
In the case of GCGACGTTGC, the switch fluorescence ratio is reported as 0.999 ± 0.036.
Sequence GCGAGAGCTG has a switch fluorescence ratio of 0.992 ± 0.017.
With GCGAGAGGGT the switch fluorescence ratio was 0.974 ± 0.025.
Sequence GCGAGAGTGT has a switch fluorescence ratio of 0.99552 ± 0.00015.
In the case of GCGAGCCAGG, the switch fluorescence ratio is reported as 2.169 ± 0.011.
GCGAGCGAAA gave a switch fluorescence ratio of 0.982 ± 0.019.
GCGAGGCCCG was tested, and the switch fluorescence ratio was 0.9944 ± 0.0017.
GCGAGGGAGG gave a switch fluorescence ratio of 1.02 ± 0.052.
For GCGAGGGGCT, the switch fluorescence ratio was 0.9717 ± 0.0031.
GCGAGGTGCA was tested, and the switch fluorescence ratio was 1.03 ± 0.055.
Sequence GCGAGGTGGT has a switch fluorescence ratio of 1.001 ± 0.0076.
With GCGAGGTTGA the switch fluorescence ratio was 1.045 ± 0.0015.
In the case of GCGAGTAGG, the switch fluorescence ratio is reported as 1.06 ± 0.056.
Work on GCGAGTGTGA yielded a switch fluorescence ratio of 1 ± 0.036.
With GCGATAAACC the switch fluorescence ratio was 1.1929 ± 0.00026.
GCGATAAGAT showed a switch fluorescence ratio of 1.0048 ± 0.00093.
GCGATACTGT showed a switch fluorescence ratio of 3.08 ± 0.17.
Sequence GCGATAGCTC has a switch fluorescence ratio of 0.973 ± 0.043.
For GCGATATCTT, the switch fluorescence ratio was 1.04 ± 0.029.
Work on GCGATCTGGA yielded a switch fluorescence ratio of 1.04 ± 0.022.
Sequence GCGATGGGGA has a switch fluorescence ratio of 1.012 ± 0.0098.
GCGATTGGAG gave a switch fluorescence ratio of 1.01 ± 0.034.
Sequence GCGCAACAGG has a switch fluorescence ratio of 1.04 ± 0.015.
For GCGCAGACTT, the switch fluorescence ratio was 1.15 ± 0.034.
GCGCCAAGAG gave a switch fluorescence ratio of 1.29 ± 0.11.
GCGCCGGAG showed a switch fluorescence ratio of 1.0019 ± 0.00089.
Sequence GCGCGACGGA has a switch fluorescence ratio of 0.9905 ± 0.0014.
GCGCGCGACT showed a switch fluorescence ratio of 1.002 ± 0.0092.
For GCGCGCGATT, the switch fluorescence ratio was 0.997 ± 0.025.
For GCGCGGCTGG, the switch fluorescence ratio was 1.02 ± 0.00077.
For GCGCTACGGG, the switch fluorescence ratio was 1.01 ± 0.019.
Sequence GCGCTAGGTG has a switch fluorescence ratio of 2.19 ± 0.12.
GCGCTCATAG gave a switch fluorescence ratio of 1.15 ± 0.018.
With GCGCTCCGGG the switch fluorescence ratio was 1.09 ± 0.072.
GCGCTGGGCA gave a switch fluorescence ratio of 1.01 ± 0.035.
With GCGCTTCAA the switch fluorescence ratio was 0.971 ± 0.014.
GCGCTTGGGG was tested, and the switch fluorescence ratio was 0.982 ± 0.011.
For GCGCTTTTTT, the switch fluorescence ratio was 0.9898 ± 0.00075.
Work on GCGGAAAAAC yielded a switch fluorescence ratio of 1.02 ± 0.058.
GCGGAAGATC was tested, and the switch fluorescence ratio was 1.03 ± 0.021.
In the case of GCGGAAGGAG, the switch fluorescence ratio is reported as 1 ± 0.016.
GCGGAATGGA was tested, and the switch fluorescence ratio was 1.02 ± 0.013.
In the case of GCGGAGAGGT, the switch fluorescence ratio is reported as 1.03 ± 0.022.
GCGGAGCTTT showed a switch fluorescence ratio of 1.01 ± 0.015.
In the case of GCGGATGCTT, the switch fluorescence ratio is reported as 0.9718 ± 0.0056.
GCGGCACAAT showed a switch fluorescence ratio of 1.05 ± 0.013.
In the case of GCGGCACGTG, the switch fluorescence ratio is reported as 0.97 ± 0.048.
Work on GCGGCCCTGG yielded a switch fluorescence ratio of 1.008 ± 0.0064.
Sequence GCGGCCTCTT has a switch fluorescence ratio of 0.993 ± 0.013.
Sequence GCGGCCTGGG has a switch fluorescence ratio of 1.02 ± 0.049.
In the case of GCGGCCTTAC, the switch fluorescence ratio is reported as 2.42 ± 0.4.
For GCGGCGGCAG, the switch fluorescence ratio was 0.9761 ± 0.0088.
In the case of GCGGGAAGCT, the switch fluorescence ratio is reported as 1.05 ± 0.044.
In the case of GCGGGAATGA, the switch fluorescence ratio is reported as 1 ± 0.045.
Work on GCGGGAGATG yielded a switch fluorescence ratio of 1.04 ± 0.018.
GCGGGAGTCC showed a switch fluorescence ratio of 1.13 ± 0.2.
GCGGGATATG gave a switch fluorescence ratio of 0.994 ± 0.019.
Sequence GCGGGATGGG has a switch fluorescence ratio of 1.08 ± 0.07.
With GCGGGCGGCC the switch fluorescence ratio was 0.9812 ± 0.0082.
In the case of GCGGGCTGAA, the switch fluorescence ratio is reported as 0.962 ± 0.014.
GCGGGGCAGC gave a switch fluorescence ratio of 1.001 ± 0.0068.
GCGGGGCCAC gave a switch fluorescence ratio of 1.2 ± 0.26.
GCGGGGGAAA was tested, and the switch fluorescence ratio was 1.02 ± 0.09.
GCGGGGGAG showed a switch fluorescence ratio of 1.01 ± 0.059.
Sequence GCGGGGGCGT has a switch fluorescence ratio of 1 ± 0.03.
With GCGGGGGGAT the switch fluorescence ratio was 1.02 ± 0.017.
Sequence GCGGGGGGGA has a switch fluorescence ratio of 1.01 ± 0.038.
With GCGGGGGTTA the switch fluorescence ratio was 0.994 ± 0.018.
In the case of GCGGGGGTTT, the switch fluorescence ratio is reported as 1.15 ± 0.28.
Work on GCGGGGTATG yielded a switch fluorescence ratio of 0.9908 ± 0.008.
Work on GCGGGGTCCG yielded a switch fluorescence ratio of 0.97126 ± 0.00059.
GCGGGGTTTC was tested, and the switch fluorescence ratio was 1.03 ± 0.059.
